From patent US20200102387A1 (CELGENE, published 2020)

What was measured:
[1] = target: T1, FcγR2A (CD32aH131) (human, UniProt P12318 34-317); experiment: cell binding, FcγR-engineered HEK293 cells
T1 construct: whole, on cells
T1 sequence (looked up): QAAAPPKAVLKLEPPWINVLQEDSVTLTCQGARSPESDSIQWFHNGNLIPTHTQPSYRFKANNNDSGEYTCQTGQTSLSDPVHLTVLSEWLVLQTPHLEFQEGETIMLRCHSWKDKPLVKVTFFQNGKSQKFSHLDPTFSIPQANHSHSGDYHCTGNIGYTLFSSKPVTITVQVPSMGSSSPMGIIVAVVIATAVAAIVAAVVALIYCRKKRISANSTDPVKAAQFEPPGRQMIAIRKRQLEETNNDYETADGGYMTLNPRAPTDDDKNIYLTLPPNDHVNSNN

[2] = target: T2, FcγR1 (CD64) (human, UniProt P12314 16-374); experiment: cell binding, FcγR-engineered HEK293 cells
T2 construct: whole, on cells

[3] = target: T3, FcγR2B (human, UniProt P31994 43-310); experiment: cell binding, FcγR-engineered HEK293 cells
T3 construct: whole, on cells
T3 sequence (looked up): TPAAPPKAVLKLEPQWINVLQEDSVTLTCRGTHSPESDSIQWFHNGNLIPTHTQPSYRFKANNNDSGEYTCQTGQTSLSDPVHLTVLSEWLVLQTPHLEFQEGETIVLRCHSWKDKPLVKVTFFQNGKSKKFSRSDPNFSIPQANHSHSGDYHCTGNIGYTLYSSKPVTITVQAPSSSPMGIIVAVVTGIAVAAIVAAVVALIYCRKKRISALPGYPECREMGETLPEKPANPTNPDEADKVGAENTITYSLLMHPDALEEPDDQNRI

[4] = target: T4, FcγR3A (CD16aV158) (human, UniProt P08637 17-254); experiment: cell binding, FcγR-engineered HEK293 cells
T4 construct: whole, on cells

[5] = target: T5, rat SIRPα on CHO-K1 cells (rat, UniProt P97710 32-509); experiment: flow cytometry on Rat SIRPα-CHO-K1 cells
T5 construct: whole, on cells; also called rat SIRPα-CHO-K1
T5 sequence (looked up): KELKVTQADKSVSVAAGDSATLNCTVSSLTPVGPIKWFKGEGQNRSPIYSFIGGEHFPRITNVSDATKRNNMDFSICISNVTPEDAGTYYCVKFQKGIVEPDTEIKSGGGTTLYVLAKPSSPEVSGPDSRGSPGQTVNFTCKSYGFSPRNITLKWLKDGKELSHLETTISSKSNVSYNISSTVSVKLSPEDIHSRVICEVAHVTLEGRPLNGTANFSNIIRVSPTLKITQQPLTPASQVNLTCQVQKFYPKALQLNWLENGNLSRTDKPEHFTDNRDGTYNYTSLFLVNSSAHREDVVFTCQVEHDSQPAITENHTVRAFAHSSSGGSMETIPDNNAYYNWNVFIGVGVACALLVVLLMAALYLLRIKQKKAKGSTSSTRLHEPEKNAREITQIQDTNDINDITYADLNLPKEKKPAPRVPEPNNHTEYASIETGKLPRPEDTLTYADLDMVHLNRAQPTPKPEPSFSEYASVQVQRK

[6] = target: T6, mouse SIRPα on cells (mouse, UniProt P97797 32-513); experiment: flow cytometry on Mouse SIRPα-CHO-K1 cells
T6 construct: whole, on cells; also called mouse SIRPα-CHO-K1; Ms SIRPα-CHO-K1
T6 sequence (looked up): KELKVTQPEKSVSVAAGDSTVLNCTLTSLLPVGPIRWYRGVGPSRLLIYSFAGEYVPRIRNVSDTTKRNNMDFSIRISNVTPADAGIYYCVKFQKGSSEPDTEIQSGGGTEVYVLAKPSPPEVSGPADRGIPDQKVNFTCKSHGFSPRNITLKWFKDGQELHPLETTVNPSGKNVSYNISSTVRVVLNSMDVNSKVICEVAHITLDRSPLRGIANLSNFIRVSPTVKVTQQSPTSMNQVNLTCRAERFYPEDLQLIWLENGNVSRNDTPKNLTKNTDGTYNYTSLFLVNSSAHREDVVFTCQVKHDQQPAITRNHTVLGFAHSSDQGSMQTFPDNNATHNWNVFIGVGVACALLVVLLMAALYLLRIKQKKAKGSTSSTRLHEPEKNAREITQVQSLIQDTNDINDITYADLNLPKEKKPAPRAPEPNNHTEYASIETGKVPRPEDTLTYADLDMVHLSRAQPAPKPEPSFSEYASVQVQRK

[7] = target: T7, human SIRPα on cells (human, UniProt P78324 31-504); experiment: flow cytometry, human SIRPα-CHO cells, anti-human IgG-AF647 detection
T7 construct: whole, on cells; also called human SIRPα-CHO; Hu SIRPα-CHO-K1

[8] = target: T8, recombinant SIRPα protein (Novoprotein, catalog number C385) (human, UniProt P78324 31-370); experiment: SPR Biacore T200 competition in solution, SIRPα 20 nM, competitor immobilized CD47-ECD
T8 construct: also called human recombinant SIRPα protein; SIRPα antigen

[9] = target: T9, extracellular domain of SIRPα v1-DLN (e.g. SIRPα1) (human, UniProt P78324 31-373); experiment: SPR Biacore T200, antibody on Protein A chip, 1:1 Langmuir fit; comparative Biacore study of Table 30, a separate experiment from Table 15
T9 construct: also called hSIRPα - ECD (v1)

EC50 [1]: 200 nM
EC50 [2]: 0.79 nM
EC50 [3]: 2710 nM
EC50 [4]: 142 nM
binding result [5]: no binding (tested: 100 nM (Log nM 2))
binding result [6]: no binding (tested: 100 nM (Log nM 2))
EC50 [7]: 2.06 nM
IC50 [8]: 12.6 nM
Kd [9]: 0.0923 nM
B1: SIRPAB-11-K322A (antibody, human IgG1, kappa)
light: DIQMTQSPSSVSASVGDRVTITCRASQGISSWLAWYQQKPGKAPKLLIYAASNLQSGVPSRFSGSGSGTDFTLTISSLQPEDFATYYCQQGASFPITFGGGTKVEIKRTVAAPSVFIFPPSDEQLKSGTASVVCLLNNFYPREAKVQWKVDNALQSGNSQESVTEQDSKDSTYSLSSTLTLSKADYEKHKVYACEVTHQGLSSPVTKSFNRGEC
heavy: not shown
notes: human IgG1 with K322A (EU numbering); also called SIRPAB-11-IgG1-K322A; SIRPAB-11-K322A-AlexaFluor647
